{
  "source": "patent US20140274766A1",
  "about": "“METHODS OF USING F-SPONDIN AS A BIOMARKER FOR CARTILAGE DEGENERATIVE CONDITIONS AND BONE DISEASES” (priority 2009, published 2014)",
  "molecules": {"B1": {"name": "F-spondin: 110 kDa, secreted, heparin-binding extracellular matrix glycoprotein; used as recombinant protein (R&D systems) or transfected-cell supernatant (protein, UniProt Q9HCB6 29-807, looked up)", "Spondin-1": "FSDETLDKVPKSEGYCSRILRAQGTRREGYTEFSLRVEGDPDFYKPGTSYRVTLSAAPPSYFRGFTLIALRENREGDKEEDHAGTFQIIDEEETQFMSNCPVAVTESTPRRRTRIQVFWIAPPAGTGCVILKASIVQKRIIYFQDEGSLTKKLCEQDSTFDGVTDKPILDCCACGTAKYRLTFYGNWSEKTHPKDYPRRANHWSAIIGGSHSKNYVLWEYGGYASEGVKQVAELGSPVKMEEEIRQQSDEVLTVIKAKAQWPAWQPLNVRAAPSAEFSVDRTRHLMSFLTMMGPSPDWNVGLSAEDLCTKECGWVQKVVQDLIPWDAGTDSGVTYESPNKPTIPQEKIRPLTSLDHPQSPFYDPEGGSITQVARVVIERIARKGEQCNIVPDNVDDIVADLAPEEKDEDDTPETCIYSNWSPWSACSSSTCDKGKRMRQRMLKAQLDLSVPCPDTQDFQPCMGPGCSDEDGSTCTMSEWITWSPCSISCGMGMRSRERYVKQFPEDGSVCTLPTEETEKCTVNEECSPSSCLMTEWGEWDECSATCGMGMKKRHRMIKMNPADGSMCKAETSQAEKCMMPECHTIPCLLSPWSEWSDCSVTCGKGMRTRQRMLKSLAELGDCNEDLEQVEKCMLPECPIDCELTEWSQWSECNKSCGKGHVIRTRMIQMEPQFGGAPCPETVQRKKCRIRKCLRNPSIQKLRWREARESRRSEQLKEESEGEQFPGCRMRPWTAWSECTKLCGGGIQERYMTVKKRFKSSQFTSCKDKKEIRACNVHPC"}},
  "key": {"[1]": {"tested_on": "OA cartilage explant cultures", "settings": "cited from earlier work"}, "[2]": {"tested_on": "embryonic mouse tibia", "test": "Embryonic mouse tibia organ culture ex vivo (growth, staining, histology)", "description": "FIGS. 20A, 20B and 20C. F-spondin regulates bone growth and morphology in mouse tibial organ cultures. Longitudinal growth and histological analysis of embryonic mouse tibia after 7 days of culture ex vivo. Tibia were treated with recombinant F-spondin FS (1 mg/ml) or an anti-F-spondin, TSR-domain specific (R1) antibody. (A) Representative images of whole tibia stained with alcian blue (proteoglycans) and alizarin red (mineral). (B) Tibial growth was measured after 7 days of organ culture and expressed as percent of original length at day 0. Average growth for control cultures has been set to 100% (C) H&E stained sections of corresponding limbs after 7 days treatment. Arrows indicate hypertrophic chondrocytes in the […] growth plate.\nAll animal experiments were conducted according to the guidelines of the Institutional Animal Care and Use Committee (IACUC) of New York University. […] After 12 hours, tibiae were placed in 24-well Falcon plates and initial longitudinal length was measured using a stereomicroscope. […] (purchased from R&D Systems, Minneapolis, Minn. (Cat No AF3135). Media was changed every 24 hours beginning on day one, and tibial length was measured again at the end of one week. The results were expressed as percentage changes in length relative to day one. […]"}, "[3]": {"tested_on": "latent TGF-β1 in OA cartilage explants", "test": "Activation of latent TGF-β1 in OA cartilage explant cultures (ELISA)", "type": "cell-based, human", "settings": "F-spondin 1 μg/ml, 24 h", "description": "FIG. 12: Activation of Latent TGF-β1 by exogenous addition of F-spondin in OA cartilage explant cultures: Human OA cartilage was grown as explant cultures in serum free Ham'F-12 medium. All the conditions were done in triplicate. To the cartilage explants recombinant human F-spondin (1 ug/ml) or IL-1 (1 ng/ml) were added and supernatants were collected after 24 h. Both active and total TGF-β1 was estimated. Addition of F-spondin increased the levels of active TGF-β1 observed in explants cultures without significant increase in total latent TGF-β1 secretion.\nThe effect of F-spondin on latent TGF-β1 activation in OA cartilage explant cultures was studied by ELISA (R&D systems). Unstimulated OA cartilage explants spontaneously released both latent TGF-β1 (˜11 ng/g cartilage) and active TGF-β1 (200 pg/g cartilage) in culture supernatants (FIG. 12)."}, "[4]": {"tested_on": "human chondrocytes", "test": "PGE2 production by human chondrocytes (RIA), F-spondin supernatant and blocking antibodies", "type": "cell-based", "settings": "supernatants from F-spondin transfected cells, 24 h, vs control vector supernatants", "description": "FIG. 11: Blocking of F-spondin function by antibody: Human chondrocytes were grown in monolayer culture. The cells were adapted to serum free medium conditions for 24 h before treating with either F-spondin transfected supernatant (150 uL), LM609 (αvβ3) or R1 (F-spondin blocking antibody) for 24 h and the culture supernatant was collected for PGE2 estimation by RIA. The data is representative of one of the three experiments. F-spondin induced production of PGE2 was inhibited by R1 (TSR 3-6 blocking antibody).\nF-spondin consists of reelin, spondin and six TSR domains; these domains may activate various cellular functions by binding to different receptors. Previously, Terai et al (2001) have shown that F-spondin inhibits angiogenesis in endothelial cells by binding to αvβ3 (Terai Y, Abe M, Miyamoto K, Koike M, Yamasaki M, Ueda M, et al. Vascular smooth muscle cell growth-promoting factor/F-spondin inhibits angiogenesis via the blockade of integrin alphavbeta3 on vascular endothelial cells. J Cell Physiol 2001; 188(3):394-402). […] Accordingly, human chondrocytes were incubated with the supernatant from F-spondin transfected cell culture for 24 h and the levels of PGE2 were measured under various conditions (FIG. 11). […]"}},
  "data": [
    {"molecule": "B1", "values": [
      {"measurement": "MMP-13 secretion", "setting": "[1]", "result": "increase"},
      {"measurement": "type II collagen degradation", "setting": "[1]", "result": "increase"},
      {"measurement": "alizarin red staining", "setting": "[2]; 7 days culture, compared to untreated limbs", "result": "slight increase"},
      {"measurement": "number of hypertrophic chondrocytes (H&E)", "setting": "[2]; growth plate cartilage adjacent to mineralized core", "result": "increased numbers"},
      {"measurement": "increase of active TGF-β1", "setting": "[3]", "result": 225, "unit": "%"},
      {"measurement": "total latent TGF-β1 synthesis", "setting": "[3]", "result": "without significant changes"},
      {"measurement": "active TGF-β1 in culture supernatants", "setting": "[3]; unstimulated 200 pg/g cartilage", "result": 550, "unit": "pg/g cartilage"},
      {"measurement": "PGE2 production", "setting": "[4]", "result": "significantly increased"}
    ]}
  ]
}
